These are literature values, as cited in PMC5386376.

In general, Kd refers to the equilibrium constant for the complex coming apart.

The target of the series is Egl1 (Caenorhabditis elegans) (UniProt O61667).
Egl1 (Caenorhabditis elegans), sequence (O61667 whole entry): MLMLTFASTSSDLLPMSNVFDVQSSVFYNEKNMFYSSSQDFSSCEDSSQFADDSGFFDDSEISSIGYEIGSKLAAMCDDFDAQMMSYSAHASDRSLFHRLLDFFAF

Bcl-2, sequence (P10415 whole entry): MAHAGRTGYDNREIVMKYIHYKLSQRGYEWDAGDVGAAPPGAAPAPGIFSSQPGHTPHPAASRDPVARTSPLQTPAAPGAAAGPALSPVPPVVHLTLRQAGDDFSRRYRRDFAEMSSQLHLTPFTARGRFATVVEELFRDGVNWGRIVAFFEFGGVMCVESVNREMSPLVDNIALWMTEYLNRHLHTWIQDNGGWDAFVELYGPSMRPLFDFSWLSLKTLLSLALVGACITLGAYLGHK

As to Bcl-2 (from UniProt P10415), the Kd is 7.1 µM.
